We go through two molecules from paper PMC10207099, “Nitrogen Fixation and Hydrogen Evolution by Sterically Encumbered Mo-Nitrogenase” (JACS Au, 2023).

The target in assay [1] is Strep-inhibited α-C45A/L158C MoFe protein (Azotobacter vinelandii) (UniProt P07328). As to the kind of experiment: SEC; analytical gel filtration of MoFe protein pre-treated with 5 molar equivalents of L127Δ Fe protein. For orientation: In gel filtration, larger molecules generally elute earlier.
Assay [2] has as its target T1, NifK (ß subunit) of the MoFe protein (Azotobacter vinelandii, UniProt P07329 1-523).
T1 construct: Nitrogenase molybdenum-iron protein beta chain (NifK, ß subunit), Azotobacter vinelandii; The ß chain of m1 and m2, written alone; also called ß-subunit/NifK; source: A. vinelandii strain M1 (derivative of RS1), purified as part of the MoFe protein (HisTrap HP, Q-Sepharose)
T1 sequence: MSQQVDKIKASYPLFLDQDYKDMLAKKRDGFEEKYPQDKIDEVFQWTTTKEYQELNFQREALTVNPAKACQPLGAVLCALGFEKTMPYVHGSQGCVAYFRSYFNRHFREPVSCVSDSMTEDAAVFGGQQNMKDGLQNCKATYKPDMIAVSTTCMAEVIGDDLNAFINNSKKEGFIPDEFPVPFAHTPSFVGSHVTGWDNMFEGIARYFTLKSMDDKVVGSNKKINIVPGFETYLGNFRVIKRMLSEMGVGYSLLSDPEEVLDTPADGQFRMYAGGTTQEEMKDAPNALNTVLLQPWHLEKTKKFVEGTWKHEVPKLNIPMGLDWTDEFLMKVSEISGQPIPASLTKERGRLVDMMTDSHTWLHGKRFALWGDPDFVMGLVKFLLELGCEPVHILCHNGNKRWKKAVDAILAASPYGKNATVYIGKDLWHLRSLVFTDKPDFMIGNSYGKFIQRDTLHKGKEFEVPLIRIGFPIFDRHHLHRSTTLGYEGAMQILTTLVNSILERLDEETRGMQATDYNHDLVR
Nature of the assay: native gel or EMSA; anoxic native-PAGE of the MoFe protein alone. The settings on record: both partners purified. (In general: A gel shift assay detects complexes by their altered migration in electrophoresis.)

Turning to “L127Δ Fe protein (non-ATP-hydrolyzing NifH2 mutant) (enzyme)”, the percent of the broadened MoFe peak that is MoFe:Fe1 complex (multi-Gaussian peak analysis) in assay [1] was 68%.

B1: NifD (α subunit) of the Strep-inhibited α-C45A/L158C MoFe protein (natural protein, Azotobacter vinelandii)
chain: GMSREEVESLIQEVLEVYPEKARKDRNKHLAVNDPAVTQSKKAIISNKKSQPGLMTIRGCAYAGSKGVVWGPIKDMIHISHGPVGCGQYSRAGRRNYYIGTTGVNAFVTMNFTSDFQEKDIVFGGDKKLAKLIDEVETLFPLNKGISVQSECPIGCIGDDIESVSKVKGAELSKTIVPVRCEGFRGVSQSLGHHIANDAVRDWVLGKRDEDTTFASTPYDVAIIGDYNIGGDAWSSRILLEEMGLRCVAQWSGDGSISEIELTPKVKLNLVHCYRSMNYISRHMEEKYGIPWMEYNFFGPTKTIESLRAIAAKFDESIQKKCEEVIAKYKPEWEAVVAKYRPRLEGKRVMLYIGGLRPRHVIGAYEDLGMEVVGTGYEFAHNDDYDRTMKEMGDSTLLYDDVTGYEFEEFVKRIKPDLIGSGIKEKFIFQKMGIPFREMHSWDYSGPYHGFDGFAIFARDMDMTLNNPCWKKLQAPWEASEGAEKVAASA
peptide: GGGWSHPQFEK
modifications: C158 joined by thiol-maleimide Michael addition to the peptide maleimide-GGGWSHPQFEK | N-terminal maleimide, joined to C158 of the α subunit
notes: Nitrogenase molybdenum-iron protein alpha chain (NifD, α subunit), Azotobacter vinelandii; The α chain of m2, written alone; in the sample only part of the α subunits carry the peptide; also called Strep-modified α subunit
In the case of B1, in assay [2], the binding result is listed as “binds”.
